# Experimental data from the supplement of paper PMC9170038.
# System: K4 kissing-loop RNA reporter
# Assay: apparent KD of K4 kissing-loop reporter; higher = weaker reporter binding
# Settings: Eterna round: R107
# Description: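 RNA-MaP round R107: designed RNA switches with theophylline, tryptophan, arginine or FMN aptamers are transcribed on-chip within common flanks. They are titrated with a labelled K4 kissing-loop RNA reporter in RNA-MaP buffer (100 mM Tris pH 7.5, 80 mM KCl, 4 mM MgCl2), without ligand or with the indicated ligand. Median apparent KD per design.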
# [1] = input ligand: theophylline 20 uM
# [2] = input ligand: tryptophan 2.4 mM
# 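Further: bound reporter read as fluorescence of individual clusters on recovered sequencing chips by microscopy, with normalized cluster intensities fitted with a binding model.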
Sequence,apparent KD of K4 kissing-loop reporter (input ligand: FMN 200 uM) [µM],apparent KD of K4 kissing-loop reporter (input ligand: arginine 13.2 mM) [µM],apparent KD of K4 kissing-loop reporter (input ligand: none) [µM],apparent KD of K4 kissing-loop reporter [1] [µM],apparent KD of K4 kissing-loop reporter [2] [µM]
AGAGAUAUAUGAGGAUAUGGGUUAGUUAAUGAGUUAGUUUUAGUGUUGUUUGGUUAGUGAUGUUAUUUAGAAGGCGUGAGUGAUG [cqqbmullin],0.0984,0.0608,0.07,0.112,0.0662
AGAGUCACAUAAGGAUAUCCCUUGACGGGAACCAAGUGAUGUUUGGUUAGACGACCUCUUAUCACGGGAGAAGGUAUAUUUGUAU [theeternabot_sameState_KL_FMN_B_27],0.724,0.58,0.889,0.676,0.612
AGAGUUAAUUAGUCUUUUUUAACAUUAAGUCAGGAUAUCGUAUAUUCGAGAAGGGACACAUGCUAGUGAUGUUAGCUAUUUCUCA [JR_ExcFMNA_Sub018],0.0502,0.0905,0.0565,0.0867,0.0472
AGAGUUAAUUAGUCUUUUUUUACAUUAAGUCAGGAUAUCGUAUAUUCGAGAAGGGACACAUGCUAGUGAUGUUAGCUAUUUCUCA [JR_Nu_ExcFMNA_Sub019],0.0397,0.0796,0.0475,0.0717,0.0444
AGAGUUAUAUGAGGAUAUGAGAUAGUUAAUGAGUGAGUUAUAGUGUAGUUUGGUUAGUGAUGUUAUUUAGAAGGCGUGAGUGAUG [reefmullin],0.133,0.0765,0.115,0.1,0.0831
AGAGUUAUGCGAGGAUAUGCAGUUAGUACUCAAAGAGUACUAACAGCAGAGUGAUGUUCUGUGAAAGCAGAAGGUGCAUAACUCA [Omei KL FMN B SS B v7],0.153,0.63,1.12,0.641,0.671
AGAGUUAUGCGAGGAUAUGCAGUUAGUACUCAAAGAGUACUAACGCAGAGUGAUGUUCUGUGAAACGCAGAAGGUGCAUAACUCA [Omei KL FMN B SS B v4],0.161,0.509,0.549,0.48,0.485
AGAGUUGACGAAAAGUCAACUCUACGAGAAGGAGCGCACGAAAGUGCAGGUAGGUCGCUCAGUCCAGUGAUGUUGGAACAUAAAA [#OpenEnded 8],0.0597,0.101,0.0688,0.0841,0.0592
AGAGUUUUAUGAGGAUAUGAGAUAGUUAAUGAGUGAGUUAUAGUGUAGUUUGGUUAGUGAUGUUAUUUAGAAGGCGUGAGUGAUG [zzfzmullin],0.205,0.0929,0.143,0.101,0.108
AGAUACUUUAUCGCUAGAGGCAUUGCAGAUACCAGCCUAUCUAGAGGCCCUUGGCAGCUGGAGUGAUGUUUCGGCUUAGCUAAAG [theeternabot_exclusion_KL_Theo_A_32],0.402,0.317,0.323,0.348,0.393
AGAUCUAAGCUGAGUUAGUCACCAUAAAGCAAGGAUAUUCCACGAAGAAGAAGGUGCAUCAUCCAUAGUGAUGUUAUGGCACGGG [theeternabot_sameState_KL_FMN_A_7],0.687,0.548,0.807,0.672,0.574
AGAUGACACCGAGGAUAUCCUAAUAUGGGUGAUGUUAGCGAUGUUGAAGGUGUAGUGAUGUUAUGCGGAGAAGGCGGUGUUGUUU [BDazzled - #21 - Exc. FMN B],0.104,0.103,0.216,0.139,0.132
AGAUGUCCCUGGGAUACCAGUCGGAGUCUCAGAGCUCGGAGUGAUGUUCUGGGAUGUUUCGGCCCUUGGCAGCUCUGGGACUCCC [#2 Exclusion - Theophylline B Attempt #25 (HarryS)],0.603,0.722,0.847,0.708,0.909
AGAUGUCUCUGGGAUACCAGUCGGAGUCUCAGGGCUCGGAGUGAUGUUCUGGGAUGUUUCGGCCCUUGGCAGCCCUGGGACUCCC [#2 Exclusion - Theophylline B Attempt #27 (HarryS)],0.724,0.514,0.649,0.74,0.542
AGCAGUGAUGUUGCAUUUAUAAAGACCGAUACCAGUAUCGAUAGAUACCCUUGGCAGCGGAUUUCCGCAACGACUAGGAAACUAG [Ex Theophylline A K4 13],0.404,0.423,0.399,0.466,0.27
AGCAGUGAUGUUGCUCAAUUUACAGGUGAUACCAGAGGUCAGUCUCUCCCUUGGCAGCACUUCAUACGAUGAUGUUUUAUCGGCC [theeternabot_sameState_KL_Theo_A_50],0.374,0.321,0.37,0.378,0.313
AGCGGCCAGUCGGCCGCCACUCCAGGCAGUGAUGUUGCUAAGUUUCUACUAGAGUGAUGUUCUAAGAGGACCGGGACUGACGUAU [Exclusion Tryptophan B Gf 8],0.178,0.225,0.199,0.216,0.145
AGCUCAGAGUGACUCGAUAAGAGUCACAAACGAGGACCGGUACGGCCGCCACUCGAAAUAACGAGAGUGAUGUUCUCGCUGGGCA [FiskerMod 1 - Jieux - Same State Tryptophan A],0.829,0.463,1.01,0.54,0.296
AGCUCAGAGUGACUCGAUAAGAGUCACAAACGAGGACCGGUACGGCCGCCACUCGAAAUAAUGGGAGUGAUGUUCUCACUGAGCA [#SwitchBubble 3 #StaticStem #K4Late],1.03,0.719,1.19,0.796,0.384
AGCUGUGGCAGAAGGAGCGACAGUUAUUCUGAUAGUACUCUGAGUGAUGUUCAGAACGACUGUCAGGUAGGUCGCUGUCACAGCU [#01 K4 Arginine B Exclusion],0.172,0.159,0.175,0.153,0.169
AGGAGCGUGGGAUGGAAAUCGCACGCUCCUCGAGGACCGGUACGGCCGCCACUCGCUCGCGCCGAGUGAUGUUCGGCCGGCGAAG [#2 Same State - Tryptophan A Attempt #15 (HarryS)],0.579,0.194,0.128,0.129,0.226

Sequence,apparent KD of K4 kissing-loop reporter (input ligand: FMN 200 uM) [µM],apparent KD of K4 kissing-loop reporter (input ligand: arginine 13.2 mM) [µM],apparent KD of K4 kissing-loop reporter (input ligand: none) [µM],apparent KD of K4 kissing-loop reporter [1] [µM],apparent KD of K4 kissing-loop reporter [2] [µM]
AGGAUGUAGUGAUGUUAUAUAAGAAGUAGACGAGGACCGGUACGGCCGCCACUCGAAACGGCUACUAGCGCGUUGCGAGGUGUGC [ExTryptoA.Cg],0.576,0.435,0.476,0.468,0.326
AGGCACGAGCAAGGAUAUCGAGUAGAGUGAUGUUCUGCCUGGGUUGGCUCGCAAGAGCCUUCUCAGCGAGAAGGUGCUCGUGCCU [#2 Same State - FMN A Attempt #18 (HarryS)],0.176,0.602,0.946,0.595,0.64
AGGCGCUUAAGUCAGUGAUGUUGAUUAUAUCGAGGACCGGUACGGCCGCCACUCGGCUUUCAUCCGCCAUCGUAGUCCUAAAACC [theeternabot_sameState_KL_Trp_A_25],0.498,0.49,0.559,0.534,0.549
AGGCGGCAAGAUUGAUUGGAAAGUAAUCGACGAGGACCGGUACGGCCGCCACUCGAACACCAGUGAUGUUGGUCUGGCUUAAGCC [Exclusion Tryptophan A GF 20],0.43,0.369,0.435,0.477,0.363
AGGCGGCAUGAUUGACUGAAAAGAAAUCAACGAGGACCGGUACGGCCGCCACUCGAACACCAGUGAUGUUGGUAUGGGAUAACCC [Exclusion Tryptophan A GF 19],0.178,0.188,0.184,0.173,0.159
AGGGUUUAACACGAUACCAGCCUGGAGGCCAGUGAUGUUGGCCGAUUUGAACAGAAUUAAGGCCCUUGGCAGCGUCUUUAAAACC [Biarat],0.143,0.152,0.167,0.165,0.153
AGGGUUUAGGACGAUACCAGCCUGGAGGCCAGUGAUGUUGGCCGAUUUGAACAGAAUUAAGGCCCUUGGCAGCGUAUCUAAAACC [Esamaza],0.28,0.291,0.32,0.161,0.259
AGGUAGUCCCUUGUUGUCAUCGAAGAUGAACGAGGACCGGUACGGCCGCCACUCGGAGUGAUGUUCCGAUGGCUGCAAAAUAAAA [MatMod 23 - Jieux - Exclusion - Tryptophan A],0.108,0.089,0.0972,0.0859,0.103
AGGUCACAACUACAGUGAUGUUGUGGAGAGCAGGAUAUGCAGAAAUGCAGAAGGGCUCGCUCUCUAGUGACCGAUCAAAAGAUCA [Omei KL FMN A SS A v9],1.36,0.311,0.669,0.545,0.532
AGGUCACGAGGAAGGAGCGCCCUGACAGGUUGCUGCCGUGGGCAGUGAUGUUGCUCAGUCCGGCAGGUAGGUCGCCUCGUGACCU,0.151,0.174,0.147,0.111,0.148
AGGUCAGCAGGAAGGAGCGCCCUGACAGGUUGCUGCCGUGGGCAGUGAUGUUGCUCAGUCCGGCAGGUAGGUCGCCUGCUGACCU,0.204,0.157,0.153,0.188,0.156
AGGUCCGAGCCCGCAAGGGCUCGGACCUGUUAGGAUAUGACGUUAUUCAGAAGGGAUGGGUGGAGUGAUGUUCCACCCGCGAGGG [#2 Same State - FMN A Attempt #12 (HarryS)],0.132,0.131,0.202,–,0.149
AGGUCCGAGCCCGGAAGGGCUCGGACCUGUUAGGAUAUGACGUUAUUCAGAAGGGAUGGGUGGAGUGAUGUUCCACCCGAGAGGG [#2 Same State - FMN A Attempt #17 (HarryS)],0.106,0.103,0.1,0.108,0.0983
AGGUCCGAGCCUGCAAAGGCUCGGACCUGUUAGGAUAUGACGUUAUUCAGAAGGGAUGGGUGGAGUGAUGUUCCACCCGCAAGGG [#2 Same State - FMN A Attempt #7 (HarryS)],0.142,0.105,0.12,0.0984,0.113
AGGUCCGAGCCUGUAAAGGCUCGGACCUGUUAGGAUAUGACGUUAUUCAGAAGGGAUGGGUGGAGUGAUGUUCCACCCGCAAGGG [#2 Same State - FMN A Attempt #5 (HarryS)],0.107,0.103,0.111,0.116,0.104
AGGUGAGACUGAAGGAGCGAUCGCGCCAGUGAUGUUGGUGAGCAUGACAAAGUCAUGCACGAUCAGGUAGGUCGCAGUCUUACUC [Omei KL Arginine B SS B v2],0.199,0.156,0.206,0.188,0.185
AGGUUUUGAUUAGGAUAUGCACUGAGGAGGAGAAUAUAGUGAUGUUAUAUAAGAGGAAGGAGAAGAGUAGAAGGGAUUGAGGUUU [SSFMNB.Q],0.156,0.285,0.191,0.197,0.19
AGUAAUCUCACGGCCGCCACUGUUUAUUGUUUUUAUAGUUAUAAAUCUUGCCAGUGAUGUUGGUACAGGACCGGGUGAGUUAAUA [#25 K4 Tryptophan B Same State],0.357,0.36,0.402,0.353,0.316
AGUACGGCAAACUUGCAACAAGCCGUACCACGAGGACCGGUACGGCCGCCACUCGAUAACUUGCAGUGAUGUUGCAAGUAAGAAU [(T)''-(K)'-(T)'-(T1)-(T2)-(K1)-(K2)_Design5],0.161,0.14,0.169,0.226,0.209
AGUAGGAAACUACAAUCCUCUCUUACUGAAGGAGCGCGUGAAAACGCAGGUAGGUCGCAGGAUUUGAGAGUGAUGUUCUCAUUAA [Ex Arginine A K4 16],0.201,0.294,0.231,0.277,0.174
